# Experimental data published in paper PMC314469, “Protein Interaction Networks by Proteome Peptide Scanning” (PLoS Biology, 2004).
# T1: Rvs167 SH3 (RV167_YEAST), P39743
# T1 chain: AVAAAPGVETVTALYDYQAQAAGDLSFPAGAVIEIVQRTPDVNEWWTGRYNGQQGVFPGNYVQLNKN
# T2: Yfr024 SH3 (LSB3_YEAST), P43603
# T2 chain: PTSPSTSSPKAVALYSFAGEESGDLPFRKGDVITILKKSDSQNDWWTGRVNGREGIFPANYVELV
# T3: Boi1 SH3 (BOI1_YEAST), P38041
# T3 chain: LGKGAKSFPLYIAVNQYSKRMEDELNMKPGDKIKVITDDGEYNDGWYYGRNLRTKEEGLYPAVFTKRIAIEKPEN
# T4: Boi2 SH3 (BOI2_YEAST), P39969
# T4 chain: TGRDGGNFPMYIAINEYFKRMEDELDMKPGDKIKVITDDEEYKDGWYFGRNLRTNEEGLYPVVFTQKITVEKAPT
# T5: Yhr016c SH3 (YSC84_YEAST), P32793
# T5 chain: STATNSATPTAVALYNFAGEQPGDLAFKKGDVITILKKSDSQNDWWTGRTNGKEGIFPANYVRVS
# Tests used:
# Assay in all cases: SPOT array
# [1] = target: T1, Rvs167 SH3 (RV167_YEAST), P39743
# [2] = target: T2, Yfr024 SH3 (LSB3_YEAST), P43603
# [3] = target: T3, Boi1 SH3 (BOI1_YEAST), P38041
# [4] = target: T4, Boi2 SH3 (BOI2_YEAST), P39969
# [5] = target: T5, Yhr016c SH3 (YSC84_YEAST), P32793
Binder,"normalised SPOT signal, Boehringer light units (BLU); mean over the file's lines of this peptide [1]","normalised SPOT signal, Boehringer light units (BLU); mean over the file's lines of this peptide [2]","normalised SPOT signal, Boehringer light units (BLU); mean over the file's lines of this peptide [3]","normalised SPOT signal, Boehringer light units (BLU); mean over the file's lines of this peptide [4]","normalised SPOT signal, Boehringer light units (BLU); mean over the file's lines of this peptide [5]"
TGFPPTPLKREGVG [YOR191W 815-828],58.1,1730,7.5,54,430
TGLPKKPLKTIRLV [YOL090W 24-37],78.4,746,57.7,74.6,144
TGRPDKPFRALLVD [YLR289W 228-241],789,5660,110,47.3,656
THAPTTPNRTSPNR [YHL007C 507-520],552,14600,74.3,14.4,4050
TKKPRPPVKSKPKH [YOR367W 153-166],54.9,344,61.5,25.1,127
TKTPTQPIRLQTVS [YER068W 519-532],104,1360,139,60.2,234
TKVPSKPDRNSKIL [YGL207W 463-476],44,4410,152,27.3,416
TLIPPIPEKQSIKN [YDL113C 210-223],38,259,82.1,37.5,324
TLQPGLPHKPLASN [YJL045W 461-474],16.3,3.9,91.4,62.6,86.1
TLQPGLPHKPLPSD [YKL148C 467-480],74.3,295,82.6,53.3,352
TLRPGIPLKPMLAK [YDL164C 384-397],118,303,105,49.9,229
TNEPTKPIRRLSTP [YMR042W 23-36],46.4,4980,111,0,1280
TNPPIDPIREANVM [YDL171C 572-585],27.6,14.7,136,55.4,110
TNYPVNPEKHEMDK [YBR140C 1667-1680],62.1,0,82.1,32.3,136
TPAPNLPEKTRLAL [YBR208C 872-885],65.7,6030,82.2,38.3,221
TPLPFAPNKSSKKT [YIR023W 846-859],28.9,315,181,50.4,100
TPPPVEPLKTKDLA [YBR284W 102-115],56.7,36.2,94.4,43.4,146
TQAPLAPSRNQENE [YPR055W 308-321],38,1200,31.7,4.1,624
TRRPHHPLKQQSTN [YIL152W 34-47],70.4,411,87.5,26.4,154
TRRPTNPFRVISVS [YNL166C 314-327],218,1890,34.6,49,566
TSAPDIPPRSPNRN [YDR239C 54-67],26700,14500,65600,35900,14800
TSKPSLPEKPQKLR [YPR171W 333-346],63.1,11600,252,19.2,319
